# The supplement of paper PMC7877785
# ± gives the uncertainty stated by the source.
# Assay: self-splicing fitness, log relative to wild type (ln ratio); higher = more splicing; Tetrahymena group I intron in knt gene, E. coli kanamycin selection, DiMSum; sequences stand for … in CUCUCU…GGAGGGAAAAGUUAUCAGGCAUGCACCUGGUAGCUAGUCUUUAAACCAAUAGAUUGCAUCGGUUUAAAAGGCAAGACCGUCAAAUUGCGGGAAAGGGGUCAACAGCCGUUCAGUACCAAGUCUCAGGGGAAACUUUGAGAUGGCCUUGCAAAGGGUAUGGUAAUAAGCUGACGGACAUGGUCCUAACCACGCAGCCAAGUCCUAAGUCAACAGAUCUUCUGUUGAUAUGGAUGCAGUUCACAGACUAAAUGUCGGUCGGGGAAGAUGUAUUCUUCUCAUAAGAUAUAGUCGGACCUCUCCUUAAUGGGAGCUAGCGGAUGAAGUGAUGCAACACUGGAGCCGCUGGGAACUAAUUUGUAUGCGAAAGUAUAUUGAUUAGUUUUGGAGUACUCGUGGUCG
# Summary of the method: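 DiMSum derived fitness as the error-weighted combination of fold changes across replicates, kanamycin versus no kanamycin, normalised to wild type. E. coli BL21(DE3) held the library, which randomised all eight P1ex-region intron nucleotides within the knt kanamycin-resistance gene on pET-22b(+). Six replicate transformations grew overnight at 37°C or 30°C on LB agar with or without 25 μg/mL kanamycin, also containing 100 μg/mL carbenicillin, 50 μM IPTG and 0.2% rhamnose, and pooled colonies were amplicon-sequenced on an Illumina HiSeq 2500.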
Sequence,self-splicing fitness (ln) (30 °C),self-splicing fitness (ln) (37 °C)
CCACAGCAAUAUUACGUAGC,-4.48 ± 0.29,-2.7 ± 0.26
CCACAGCAAUAUUACGUAUA,-4.05 ± 0.24,-2.84 ± 0.23
CCACAGCAAUAUUACGUCUU,-3.88 ± 0.14,-2.85 ± 0.12
CCACAGCAAUAUUACGUGCA,-4.24 ± 0.24,-2.5 ± 0.12
CCACAGCAAUAUUACGUGGG,-3.56 ± 0.14,-3.13 ± 0.18
CCACAGCAAUAUUACGUUAC,-3.16 ± 0.21,-2.17 ± 0.17
CCAGAGCAAUAUUACGAACA,-2.39 ± 0.47,-1.48 ± 0.49
CCAGAGCAAUAUUACGACAU,-3.776 ± 0.029,-3.03 ± 0.043
CCAGAGCAAUAUUACGACUC,-1.93 ± 0.32,-1.12 ± 0.43
CCAGAGCAAUAUUACGAGGG,-4.31 ± 0.39,-2.39 ± 0.41
CCAGAGCAAUAUUACGAUGU,-3.69 ± 0.23,-1.83 ± 0.17
CCAGAGCAAUAUUACGAUUU,-3.77 ± 0.35,-3.59 ± 0.39
CCAGAGCAAUAUUACGCACU,-2.9 ± 0.25,–
CCAGAGCAAUAUUACGCAUC,-2.56 ± 0.28,-1.99 ± 0.31
CCAGAGCAAUAUUACGCCCU,-2.65 ± 0.48,-2.07 ± 0.36
CCAGAGCAAUAUUACGCCUG,–,-2.66 ± 0.36
CCAGAGCAAUAUUACGCGCA,-3.16 ± 0.25,–
CCAGAGCAAUAUUACGCGGA,-3.2 ± 0.34,-2.49 ± 0.24
CCAGAGCAAUAUUACGCGGU,-3.94 ± 0.23,-3.14 ± 0.33
CCAGAGCAAUAUUACGCUCA,-3.24 ± 0.38,-1.42 ± 0.37
CCAGAGCAAUAUUACGCUCG,-2.32 ± 0.28,-1.95 ± 0.38
CCAGAGCAAUAUUACGCUUG,-3.27 ± 0.26,-2.93 ± 0.35
CCAGAGCAAUAUUACGGACU,-3.62 ± 0.48,-0.487 ± 0.4
CCAGAGCAAUAUUACGGCAG,-1.8 ± 0.088,-1 ± 0.13
CCAGAGCAAUAUUACGGCCC,-2.44 ± 0.46,-1.44 ± 0.42

Sequence,self-splicing fitness (ln) (30 °C),self-splicing fitness (ln) (37 °C)
CCAGAGCAAUAUUACGGGAC,-2.81 ± 0.33,–
CCAGAGCAAUAUUACGGGUG,-1.52 ± 0.072,-0.654 ± 0.096
CCAGAGCAAUAUUACGGUCG,-1.35 ± 0.1,-0.448 ± 0.12
CCAGAGCAAUAUUACGGUGU,-3.53 ± 0.16,-2.7 ± 0.2
CCAGAGCAAUAUUACGGUUC,-4.36 ± 0.21,-2.38 ± 0.18
CCAGAGCAAUAUUACGUGAC,-3.36 ± 0.19,-3.93 ± 0.46
CCAGAGCAAUAUUACGUGAG,-0.95 ± 0.061,-0.428 ± 0.074
CCAGAGCAAUAUUACGUGCA,-1.88 ± 0.22,-2.54 ± 0.4
CCAGAGCAAUAUUACGUUCG,-2.91 ± 0.17,-1.64 ± 0.17
CCAUAGCAAUAUUACGAAAG,-2.11 ± 0.12,-0.18 ± 0.12
CCAUAGCAAUAUUACGAACC,-1.85 ± 0.5,–
CCAUAGCAAUAUUACGAAUU,-3.3 ± 0.23,-2.51 ± 0.39
CCAUAGCAAUAUUACGAGAA,-0.566 ± 0.36,–
CCAUAGCAAUAUUACGAGCA,-3.11 ± 0.2,-2.11 ± 0.23
CCAUAGCAAUAUUACGCACA,-3.14 ± 0.28,-1.45 ± 0.27
CCAUAGCAAUAUUACGCGGG,-3.99 ± 0.21,-2.87 ± 0.24
CCAUAGCAAUAUUACGCUAU,–,-3.35 ± 0.37
CCAUAGCAAUAUUACGGAAC,-3.26 ± 0.24,-1.55 ± 0.27
CCAUAGCAAUAUUACGGACG,-1.47 ± 0.11,-1.21 ± 0.14
CCAUAGCAAUAUUACGGAUU,-3.49 ± 0.19,-2.96 ± 0.24
CCAUAGCAAUAUUACGGCCA,-3.07 ± 0.37,-3.3 ± 0.42
CCAUAGCAAUAUUACGGGCG,-1.02 ± 0.097,-0.644 ± 0.11
CCAUAGCAAUAUUACGUAAG,-0.421 ± 0.055,-0.575 ± 0.07
CCAUAGCAAUAUUACGUCAU,-4.08 ± 0.31,-2.69 ± 0.17
CCAUAGCAAUAUUACGUGAU,-2.78 ± 0.097,-2.76 ± 0.16
